Data reported in article PMC9972897 (Science immunology, 2023).

Legend:
[1] = target: SD1-RBD of SARS-CoV-2 S, Omicron BA.2 (SARS-CoV-2, Omicron BA.2, strain); assay: ELISA; settings: both partners purified
[2] = target: SD1-RBD of SARS-CoV-2 S, Alpha (SARS-CoV-2, Alpha (B.1.1.7), strain); assay: ELISA; settings: both partners purified
[3] = target: SD1-RBD of SARS-CoV-2 S, Delta (SARS-CoV-2, Delta (B.1.617.2), strain); assay: ELISA; settings: both partners purified
[4] = target: SD1-RBD of SARS-CoV-2 S, Omicron BA.1 (SARS-CoV-2, Omicron BA.1 (B.1.1.529), strain); assay: ELISA; settings: both partners purified
[5] = target: SD1-RBD of SARS-CoV-2 S, Omicron BA.2.75 (SARS-CoV-2 Omicron BA.2.75 (GenBank …, strain)); assay: ELISA; settings: both partners purified
[6] = target: SD1-RBD of SARS-CoV-2 S, Beta (SARS-CoV-2, Beta (B.1.351), strain); assay: ELISA; settings: both partners purified
[7] = target: SD1-RBD of SARS-CoV-2 S, Omicron BA.4/BA.5 (SARS-CoV-2 Omicron BA.4/BA.5 (GenBank …, strain)); assay: ELISA; settings: both partners purified
[8] = target: SD1-RBD of SARS-CoV-2 S, Gamma (SARS-CoV-2, Gamma (B.1.1.28.1), strain); assay: ELISA; settings: both partners purified
[9] = target: SARS-CoV-2 S-2P ectodomain trimer (ancestral) (SARS-CoV-2 (ancestral, MN908947), stabilised); assay: SPR; settings: both partners purified
[10] = target: SARS-CoV-2 S Omicron BA.1, C-terminally truncated, expressed on 293T cells (SARS-CoV-2, Omicron BA.1 (B.1.1.529), strain); assay: flow cytometry on cells; settings: one partner purified
[11] = target: SARS-CoV-2 S Omicron BA.4/BA.5, C-terminally truncated, expressed on 293T cells (SARS-CoV-2, Omicron BA.4/BA.5, strain); assay: flow cytometry on cells; settings: one partner purified

B1: sd1.040 monoclonal antibody (IgG) (antibody, V domains shown)
VH: QVQLVQSGAEVKKPGASVKVSCKASGYTFTSFYIHWVRQAPGQGLEWMGIIDPSGGSTSYPQKFQGRVTMTRDTSTSTVYMDLSSLRSEDTAVYYCTRDGSAGDNSWFDPWGQGTLVTVSS
VL: not shown
**Q.** Does B1 bind [1]?
**A.** binds

**Q.** Does B1 bind [2]?
**A.** binds

**Q.** Does B1 bind [3]?
**A.** binds

**Q.** Does B1 bind [4]?
**A.** binds

**Q.** Does B1 bind [5]?
**A.** binds

**Q.** Does B1 bind [6]?
**A.** binds

**Q.** Does B1 bind [7]?
**A.** binds

**Q.** Does B1 bind [8]?
**A.** binds

B2: sd1.040 Fab (Fab, V domains shown)
VH: QVQLVQSGAEVKKPGASVKVSCKASGYTFTSFYIHWVRQAPGQGLEWMGIIDPSGGSTSYPQKFQGRVTMTRDTSTSTVYMDLSSLRSEDTAVYYCTRDGSAGDNSWFDPWGQGTLVTVSS
VL: not shown
**Q.** For B2, which Kd [9] is on record?
**A.** 200 pM

B3: fp.006 monoclonal antibody (IgG) (antibody, V domains shown)
VH: EVQLVESGGGVVQPGGSLRLSCAASGFNFNNYALHWVRQAPGKGLEWVAIISYEARNKKYGVSVMGRFSISRDNSKSIMYLEMNSLRVEDTGVYYCARDLFLSDYDRSGYDPTRGGFDHWGQGTLVTVSS
VL: EIVMTQSPATLSVSPGERATLSCRASQSVSSSLAWYQHRFGQAPRLLISGASTRATGIPGRFSGSGSGTEFTLTISSLQSEDVAVYYCQQYGDWPLVTFGGGTKVEIK
**Q.** With B3 as the binder, how does the “fold increase of binding (gMFI) with soluble ACE2” value (shortened to “fold increase of binding (gMFI)”) [10] read?
**A.** 5.3 fold

**Q.** And the “fold increase of binding (gMFI)” value [11]?
**A.** 8.2 fold

B4: hr2.023 monoclonal antibody (IgG) (antibody, V domains shown)
VH: QVQLVQSGAEVKKPGASVKVSCRASENIFSDSYLHWVRQAPGQGLEWMGIITPSGDKTFYAQQFQGRLTMTRDTPTNTLHMDLRGLTSADTAIYYCARQATKGGWDYWGQGTLVTVSS
VL: EIVLTQSPGTLSLSPGESATLSCRASQSVTRNYLAWYQQQPGQAPRLLIYGASNRATGVPDRFSGSGSGTDFTLTISRLEPEDFAVYYCQQYGSSPPTFIFGPGTKVDIK
**Q.** What does the source list for B4?
**A.** fold increase of binding (gMFI) with soluble ACE2 [10]: 5.8 fold; fold increase of binding (gMFI) with soluble ACE2 [11]: 5.3 fold

B5: hr2.016 monoclonal antibody (IgG) (antibody, V domains shown)
VH: EVQLLESGGGLVQPGGSLRLSCAASGFMFSKYAMTWVRQTPGKGLEWVSVISGGGGSTYYADSVKGRFTISRDNSKNTLYLQMNSLRAEDTAVYYCAKLLVVFVIDYWGQGALVTVSS
VL: EIVLTQSPGTLSLSPGERATLFCRASQSVSSNLAWYQQKPGRAPRLLISGASSRATGIPDRFSGSGSGTDFTLTISRLEPEDFAVYYCQQYGSSPPTFGQGTKVEIK
**Q.** B5 was tested. Which “fold increase of binding (gMFI)” value [10] did it give?
**A.** 4.9 fold

**Q.** And the “fold increase of binding (gMFI)” value [11]?
**A.** 4.6 fold
